Like-named read-outs stand apart in the source and are kept apart here. Where no end group is shown, it is not given here. [ ]: non-standard residue; d: D form. Lys(Me3) = C[N+](C)(C)CCCC[C@H](N)C(=O)O
Assays:
[1] = biological target: T1, H3K4me3 peptide (also: biotinylated, site not given here); test: yeast display of the scFv, peptide titration, flow cytometry
T1 peptide: ART[Lys(Me3)]QTARKSTGGYCD

[2] = biological target: T1, H3K4me3 peptide; test: as above
[3] = biological target: T1, H3K4me3 peptide; test: yeast display, flow cytometry [A]
[4] = biological target: T2, H3K27me3 peptide (trimethyl-lysine at K27 (histone H3 numbering); biotinylated through the GYCD tag); test: yeast display, flow cytometry [A]
T2 peptide: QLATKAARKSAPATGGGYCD

[5] = biological target: T2, H3K27me3 peptide; test: phage ELISA [B]
[6] = biological target: T3, H4K20me3 peptide (trimethyl-lysine at K20 (histone H4 numbering); biotinylated through the GYCD tag); test: phage ELISA [B]
T3 peptide: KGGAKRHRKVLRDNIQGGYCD

[7] = biological target: T3, H4K20me3 peptide; test: phage ELISA [A]
[8] = biological target: T2, H3K27me3 peptide; test: yeast display, flow cytometry [B]
[9] = biological target: T4, H3K36me3 peptide (K(me3) at H3 K36; K(biotin) near the C-terminus, as printed: SAPATGGVK-K(me3)-PHRYRPGG-K(biotin)-D); test: yeast display, flow cytometry [B]
T4 peptide: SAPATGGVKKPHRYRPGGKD

[10] = biological target: T4, H3K36me3 peptide; test: phage ELISA
[11] = biological target: T1, H3K4me3 peptide; test: phage ELISA

B1: scFv 4-5 (scFv)
scFv: EVQLVETGGGVVQPGRSLRLSCTASGFTFRDYWMSWVRQAPGKGLEWVADIKQDGSDKYYVDAVKGRFTISRDNAKSSLYLQMNSLGAEDTAVYYCARDFSRGSGWHFDLWGRGTLVTVSSGILGSGGGGSGGGGSGGGGSSYVLTQPPSVSVAPGQTARITCGGTNIGDISVHWYQQRPGQAPLVVVYDDSDRPSGIPERFSGSNSGNTATLTISRVEAGDEADYYCQVWDDSINAYVFGTGTKVTVL
notes: also called lead antibody; scFv 4-5 polypeptide
[1]
  Kd: 5.1 µM
[2]
  Kd: 5.1 µM

B2: 36H1 (scFv)
scFv: EVQLVETGGGVVQPGRSLRLSCTASGFTFRDYWMSWVRQAPGKGLEWVADISKEGKYMYYLDAVKGRFTISRDNAKSSLYLQMNSLGAEDTAVYYCARDLNYGAGWHFDLWGRGTLVTVSSSYVLTQPPSVSVAPGQTARITCGGTNIGDISVHWYQQRPGQAPLVVVYDDSDRPSGIPERFSGSNSGNTATLTISRVEAGDEADYYCQVWDDSINAYVFGTGTKVTVL
[3]
  binding result: no binding (tested: 500 nM)
[4]
  binding result: no binding (tested: 500 nM)

B3: 4H1 (scFv)
scFv: EVQLVETGGGVVQPGRSLRLSCTASGFTFRDYWMSWVRQAPGKGLEWVADIGEHGSFSYYLDAVKGRFTISRDNAKSSLYLQMNSLGAEDTAVYYCARNFSRGYGWHFDLWGRGTLVTVSSSYVLTQPPSVSVAPGQTARITCGGTNIGDISVHWYQQRPGQAPLVVVYDDSDRPSGIPERFSGSNSGNTATLTISRVEAGDEADYYCQVWDDSINAYVFGTGTKVTVL
[5]
  binding result: no binding (tested: 100 nM peptide)
[6]
  binding result: no binding (tested: 100 nM peptide)

B4: 4H2 (scFv)
scFv: EVQLVETGGGVVQPGRSLRLSCTASGFTFRDYWMSWVRQAPGKGLEWVADISKDGSASYYVDAVKGRFTISRDNAKSSLYLQMNSLGAEDTAVYYCARDFVSGYGWHFDLWGRGTLVTVSSSYVLTQPPSVSVAPGQTARITCGGTNIGDISVHWYQQRPGQAPLVVVYDDSDRPSGIPERFSGSNSGNTATLTISRVEAGDEADYYCQVWDDSINAYVFGTGTKVTVL
[5]
  binding result: no binding (tested: 100 nM peptide)
[6]
  binding result: no binding (tested: 100 nM peptide)

B5: 4H3 (scFv)
scFv: EVQLVETGGGVVQPGRSLRLSCTASGFTFRDNWMSWVRQAPGKGLEWVADIAEDGKAMYYIDAVKGRFTISRDNAKSSLYLQMNSLGAEDTAVYYCARVFSRGYGWHFDLWGRGTLVTVSSSYVLTQPPSVSVAPGQTARITCGGTNIGDISVHWYQQRPGQAPLVVVYDDSDRPSGIPERFSGSNSGNTATLTISRVEAGDEADYYCQVWDDSINAYVFGTGTKVTVL
[6]
  binding result: no binding (tested: 100 nM peptide)

B6: 9H3 (scFv)
scFv: EVQLVETGGGVVQPGRSLRLSCTASGFTFRDYWMSWVRQAPGKGLEWVADISQDGESRYYVDAVKGRFTISRDNAKSSLYLQMNSLGAEDTAVYYCARDLLSGYGWHFDLWGRGTLVTVSSSYVLTQPPSVSVAPGQTARITCGGTNIGDISVHWYQQRPGQAPLVVVYDDSDRPSGIPERFSGSNSGNTATLTISRVEAGDEADYYCQVWDDSINAYVFGTGTKVTVL
[7]
  binding result: no binding (tested: 100 nM peptide)

B7: 20H3 (scFv)
scFv: EVQLVETGGGVVQPGRSLRLSCTASGFTFRDYWMSWVRQAPGKGLEWVADISQEGSWAYYLDAVKGRFTISRDNAKSSLYLQMNSLGAEDTAVYYCARDFPHGSGWHFDLWGRGTLVTVSSSYVLTQPPSVSVAPGQTARITCGGTNIGDISVHWYQQRPGQAPLVVVYDDSDRPSGIPERFSGSNSGNTATLTISRVEAGDEADYYCQVWDDSINAYVFGTGTKVTVL
[8]
  binding result: no binding (tested: 500 nM)
[9]
  binding result: no binding (tested: 500 nM)

B8: 36H2 (scFv)
scFv: EVQLVETGGGVVQPGRSLRLSCTASGFTFRDHWMSWVRQAPGKGLEWVADISKEGKYMYYLDAVKGRFTISRDNAKSSLYLQMNSLGAEDTAVYYCARDLNYGAGWHFDLWGRGTLVTVSSSYVLTQPPSVSVAPGQTARITCGGTNIGDISVHWYQQRPGQAPLVVVYDDSDRPSGIPERFSGSNSGNTATLTISRVEAGDEADYYCQVWDDSINAYVFGTGTKVTVL
[3]
  binding result: no binding (tested: 500 nM)
[4]
  binding result: no binding (tested: 500 nM)

B9: 36H4 (scFv)
scFv: EVQLVETGGGVVQPGRSLRLSCTASGFTFRDHWMSWVRQAPGKGLEWVADISKEGKYMYYLDAVKGRFTISRDNAKSSLYLQMNSLGAEDTAVYYCARDLNYGAGWHFDVWGRGTLVTVSSSYVLTQPPSVSVAPGQTARITCGGTNIGDISVHWYQQRPGQAPLVVVYDDSDRPSGIPERFSGSNSGNTATLTISRVEAGDEADYYCQVWDDSINAYVFGTGTKVTVL
[3]
  binding result: no binding (tested: 500 nM)
[4]
  binding result: no binding (tested: 500 nM)

B10: 36H5 (scFv)
scFv: EVQLVETGGGVVQPGRSLRLSCTASGFTFRDYWVSWVRQAPGKGLEWVADISKEGKYMYYLDAVKGRFTISRDNAKSSLYLQMNSLGAEDTAVYYCARDLNYGAGWHFDLWGRGTLVTVSSSYVLTQPPSVSVAPGQTARITCGGTNIGDISVHWYQQRPGQAPLVVVYDDSDRPSGIPERFSGSNSGNTATLTISRVEAGDEADYYCQVWDDSINAYVFGTGTKVTVL
[3]
  binding result: no binding (tested: 500 nM)
[4]
  binding result: no binding (tested: 500 nM)

B11: 27F40 (scFv)
scFv: EVQLVETGGGVVQPGRSLRLSCTASGFTFRDYWMSWVRQAPGKGLEWVADINPDGITRYYIDAVKGRFTISRDNAKSSLYLQMNSLGAEDTAVYYCAREFTNVYGWHFDLWGRGTLVTVSSSYVLTQPPSVSVAPGQTARITCGGTNISNTYVHWYQQRPGQAPLVVVYSSPARPSGIPERFSGSNSGNTATLTISRVEAGDEADYYCQVWDDSINAYVFGTGTKVTVL
[10]
  binding result: no binding (tested: 100 nM peptide)

B12: 27F12 (scFv)
scFv: EVQLVETGGGVVQPGRSLRLSCTASGFTFRDYWMSWVRQAPGKGLEWVADINPDGITRYYIDAVKGRFTISRDNAKSSLYLQMNSLGAEDTAVYYCAREFTNAYGWHFDLWGRGTLVTVSSSYVLTQPPSVSVAPGQTARITCGGTNIISTYVHWYQQRPGQAPLVVVYAHSDRPSGIPERFSGSNSGNTATLTISRVEAGDEADYYCQVWDDSINAYVFGTGTKVTVL
[10]
  binding result: no binding (tested: 100 nM peptide)

B13: 27F52 (scFv)
scFv: EVQLVETGGGVVQPGRSLRLSCTASGFTFRDYWMSWVRQAPGKGLEWVADINPDGITRYYIDAVKGRFTISRDNAKSSLYLQMNSLGAEDTAVYYCAREFNNVYGWHFDLWGRGTLVTVSSSYVLTQPPSVSVAPGQTARITCGGTNINDTYVHWYQQRPGQAPLVVVYSSDPRPSGIPERFSGSNSGNTATLTISRVEAGDEADYYCQVWDDSINAYVFGTGTKVTVL
[10]
  binding result: no binding (tested: 100 nM peptide)

B14: 20F78 (scFv)
scFv: EVQLVETGGGVVQPGRSLRLSCTASGFTFRDYWMSWVRQAPGKGLEWVADINPDGITRYYIDAVKGRFTISRDNAKSSLYLQMNSLGAEDTAVYYCAREFPNNYGWHFDLWGRGTLVTVSSSYVLTQPPSVSVAPGQTARITCGGTNIDHRVPVHWYQQRPGQAPLVVVYAYSSRPSGIPERFSGSNSGNTATLTISRVEAGDEADYYCQVWDDSINAYVFGTGTKVTVL
[11]
  binding result: no binding (tested: 100 nM peptide)

B15: 20F94 (scFv)
scFv: EVQLVETGGGVVQPGRSLRLSCTASGFTFRDYWMSWVRQAPGKGLEWVADINPDGITRYYIDAVKGRFTISRDNAKSSLYLQMNSLGAEDTAVYYCAREFPYINIWHFDLWGRGTLVTVSSSYVLTQPPSVSVAPGQTARITCGGTNIADYTTVHWYQQRPGQAPLVVVYANSARPSGIPERFSGSNSGNTATLTISRVEAGDEADYYCQVWDDSINAYVFGTGTKVTVL
[11]
  binding result: no binding (tested: 100 nM peptide)

B16: 20F87 (scFv)
scFv: EVQLVETGGGVVQPGRSLRLSCTASGFTFRDYWMSWVRQAPGKGLEWVADINPDGITRYYIDAVKGRFTISRDNAKSSLYLQMNSLGAEDTAVYYCAREFYGSWHFDLWGRGTLVTVSSSYVLTQPPSVSVAPGQTARITCGGTNISHSSGDVHWYQQRPGQAPLVVVYYSYARPSGIPERFSGSNSGNTATLTISRVEAGDEADYYCQVWDDSINAYVFGTGTKVTVL
[11]
  binding result: no binding (tested: 100 nM peptide)

B17: 20F109 (scFv)
scFv: EVQLVETGGGVVQPGRSLRLSCTASGFTFRDYWMSWVRQAPGKGLEWVADINPDGITRYYIDAVKGRFTISRDNAKSSLYLQMNSLGAEDTAVYYCAREFHPGRYDWHFDLWGRGTLVTVSSSYVLTQPPSVSVAPGQTARITCGGTNISSSSVHWYQQRPGQAPLVVVYDDNYRPSGIPERFSGSNSGNTATLTISRVEAGDEADYYCQVWDDSINAYVFGTGTKVTVL
[11]
  binding result: no binding (tested: 100 nM peptide)

Source: patent US20160130329A1 (UNIVERSITY OF CHICAGO, published 2016)
